Changes are numbered by the printed parent chain.
B1: h25A8-C8_Ep (antibody, V domains shown)
VH: EVQLVESGGGLVKPGGSLRLSCAASGFTFNTYAMNWVRQAPGKGLEWVGRIRSKINNYATYYAESVKGRFTISRDDSKNTLYLQMNSLKTEDTAVYYCVRHETLRSGISWFASWGQGTLVTVSS
VL: QAVVTQEPSLTVSPGGTVTLTCRSSTGAVTTSNYANWVQQKPGQAPRGLIGGTNTRAPGTPARFSGSLLGGKAALTLSGAQPEDEAEYYCVLWYNNHWVFGGGTKLTVL
modifications: left off: another chain or arm of the molecule; a dimerising Fc or GST; small tags and cut ends
B2: h25A8-B13_Ep: anti-EpCam/CD3 bispecific, human IgG2dA, anti-CD3 arm h25A8-B13 (antibody, V domains shown)
VH: B1 VH with N30S
VL: B1 VL with S24T
modifications: left off: another chain or arm of the molecule; a dimerising Fc or GST; small tags and cut ends
notes: anti-EpCam/CD3 bispecific, human IgG2dA, anti-CD3 arm h25A8-B13
B3: h25A8-B12_Ep: anti-EpCam/CD3 bispecific, human IgG2dA, anti-CD3 arm h25A8-B12 (antibody, V domains shown)
VH: B1 VH with N30S
VL: B1 VL with S24A
modifications: left off: another chain or arm of the molecule; a dimerising Fc or GST; small tags and cut ends
notes: anti-EpCam/CD3 bispecific, human IgG2dA, anti-CD3 arm h25A8-B12
B4: h25A8-B5_Ep (antibody, V domains shown)
VH: B1 VH with N30S
VL: B1 VL with H97Y
modifications: left off: another chain or arm of the molecule; a dimerising Fc or GST; small tags and cut ends
B5: h25A8-B8_Ep (antibody, V domains shown)
VH: B1 VH with N30S
VL: B1 VL
modifications: left off: another chain or arm of the molecule; a dimerising Fc or GST; small tags and cut ends
B6: h2B4-1d_Ep: anti-EpCam/CD3 bispecific, human IgG2dA, anti-CD3 arm h2B4-1d (h2B4) (antibody, V domains shown)
VH: EVQLVESGGGLVQPGGSLRLSCAASGFTFSDYYMTWVRQAPGKGLEWVAFIRNRARGYTSDHNASVKGRFTISRDNAKNSLYLQMNSLRAEDTAVYYCARDRPSYYVLDYWGQGTTVTVSS
VL: DIVMTQSPDSLAVSLGERATINCTSSQSLFNVRSRKNYLAWYQQKPGQPPKLLISWASTRESGVPDRFSGSGSGTDFTLTISSLQAEDVAVYYCKQSYDLFTFGSGTKLEIK
modifications: left off: another chain or arm of the molecule; a dimerising Fc or GST; small tags and cut ends
B7: h2B4-TK_Ep: anti-EpCam/CD3 bispecific, human IgG2dA, anti-CD3 arm h2B4-TK (h2B4-VH-wt VL_TK) (antibody, V domains shown)
VH: B6 VH
VL: B6 VL with T24K
modifications: left off: another chain or arm of the molecule; a dimerising Fc or GST; small tags and cut ends
B8: h2B4-yaesTK_Ep: anti-EpCam/CD3 bispecific, human IgG2dA, anti-CD3 arm h2B4-yaesTK (h2B4-VH-yaes VL_TK) (antibody, V domains shown)
VH: B6 VH with H62Y, N63A, A64E
VL: B6 VL with T24K
modifications: left off: another chain or arm of the molecule; a dimerising Fc or GST; small tags and cut ends
B9: h2B4-hnpsTK_Ep: anti-EpCam/CD3 bispecific, human IgG2dA, anti-CD3 arm h2B4-hnpsTK (h2B4-VH-hnps VL_TK) (antibody, V domains shown)
VH: B6 VH with A64P
VL: B6 VL with T24K
modifications: left off: another chain or arm of the molecule; a dimerising Fc or GST; small tags and cut ends
B10: COMBO_Rd4_0.6 nM_C17: anti-BCMA antibody (antibody, V domains shown)
VH: EVQLLESGGGLVQPGGSLRLSCAASGFTFSSYPMSWVRQAPGKGLEWVSAIGGSGGSLPYADSVKGRFTISRDNSKNTLYLQMNSLRAEDTAVYYCARYWPMDIWGQGTLVTVSS
VL: EIVLTQSPGTLSLSPGERATLSCRASQGISSTYLAWYQQKPGQAPRLLMYDASIRATGIPDRFSGSGSGTDFTLTISRLEPEDFAVYYCQQYAYWPLTFGQGTKVEIK
B11: A02_Rd4_6 nM_C03: anti-BCMA antibody (antibody, V domains shown)
VH: B10 VH with P33A, S35N, G52S, G53D, L58T, P59Y
VL: B10 VL with G28S, I29V, S31N, T32L, A93Q, Y94G
B12: A02_Rd4_0.6 nM_C06: anti-BCMA antibody (antibody, V domains shown)
VH: B10 VH with P33A, S35N, G52S, G53D, L58A, P59W, D103S, I104L
VL: B10 VL with G28S, I29V, S31V, T32L, A93Q, Y94R
B13: COMBO_Rd4_0.6 nM_C11: anti-BCMA antibody (antibody, V domains shown)
VH: B10 VH with I51A, G52L, L58T, P59Y, D103S, I104L
VL: B10 VL with G28S, I29V, S31V, T32R, A93G, Y94S, L97I
B14: COMBO_Rd4_6 nM_C22: anti-BCMA antibody (antibody, V domains shown)
VH: B10 VH with P33A, S35N, I51C, G52L, G53D, L58T, P59Y, I104S
VL: B10 VL with G28S, I29V, T32S, A93Q, Y94G
B15: A02_Rd4_0.6 nM_C09: anti-BCMA antibody (antibody, V domains shown)
VH: B10 VH with P33A, S35N, G52S, G53D, L58M, P59W, D103S, I104L
VL: B10 VL with G28S, I29V, T32S, A93Q, Y94S

The molecules below were run against CD3 (Homo sapiens, UniProt P07766) (assay: Biacore kinetics of anti-CD3 hIgG2dA bispecifics at 37° C.). Details: not given.
Sequence of CD3 (P07766 23-126 limits assumed): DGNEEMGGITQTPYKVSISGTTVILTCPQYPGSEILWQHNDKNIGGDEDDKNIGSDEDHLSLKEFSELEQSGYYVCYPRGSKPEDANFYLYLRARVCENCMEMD
Sequence of CD3 (P04234 22-105 partner limits assumed): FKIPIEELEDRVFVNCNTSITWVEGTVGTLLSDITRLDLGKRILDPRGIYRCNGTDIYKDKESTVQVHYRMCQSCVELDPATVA
Format: binding
For B1, the Kd was 25.1 nM, the ka was 1.2e+06 M⁻¹ s⁻¹ and the kd was 0.0301 s⁻¹. Molecule B2 has a Kd of 18.3 nM, a ka of 1.2e+06 M⁻¹ s⁻¹ and a kd of 0.0219 s⁻¹. Molecule B3 has a Kd of 21 nM, a ka of 1.15e+06 M⁻¹ s⁻¹ and a kd of 0.0241 s⁻¹. For B4, the Kd was 45 nM, the ka was 1.29e+06 M⁻¹ s⁻¹ and the kd was 0.0581 s⁻¹. B5 was tested, and the Kd was 18.7 nM, the ka was 1.19e+06 M⁻¹ s⁻¹ and the kd was 0.0222 s⁻¹. B6 gave a Kd of 40.4 nM, a ka of 586000 M⁻¹ s⁻¹ and a kd of 0.0237 s⁻¹. For B7, the Kd was 31 nM, the ka was 687000 M⁻¹ s⁻¹ and the kd was 0.0213 s⁻¹. B8 was tested, and the Kd was 54.4 nM, the ka was 474000 M⁻¹ s⁻¹ and the kd was 0.0258 s⁻¹. Work on B9 yielded a Kd of 31.2 nM, a ka of 754000 M⁻¹ s⁻¹ and a kd of 0.0235 s⁻¹.

Each molecule was assayed against T1, hBCMA (human BCMA) (Homo sapiens, UniProt Q02223) (assay: Kinetics and affinity of hBCMA/human IgG interactions by SPR (Bio-Rad Proteon XPR36)). Details: human BCMA, 37° C.
T1 sequence (Q02223 1-184): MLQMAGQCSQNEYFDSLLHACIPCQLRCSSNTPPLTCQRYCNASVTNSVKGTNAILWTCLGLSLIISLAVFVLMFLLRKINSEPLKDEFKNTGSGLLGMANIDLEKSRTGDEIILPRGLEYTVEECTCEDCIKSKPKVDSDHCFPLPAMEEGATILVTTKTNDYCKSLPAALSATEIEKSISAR
Format: binding
How it was run: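 Anti-BCMA IgGs were amine-coupled to a GLC chip, and hBCMA analyte was injected as a single-cycle kinetic titration (0.08, 0.4, 2, 10, 50 nM; 2 min each) at 37° C. or 25° C. in HBS-T+ pH 7.4 with 1 mg/mL BSA. Dissociation was followed 2 hours, with double-referenced 1:1 Langmuir-plus-mass-transport fitting.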
B10 was tested, and the “ka Human” value was 8.68e+06 M⁻¹ s⁻¹ and the “kd Human” value was 0.000801 s⁻¹. For B11, the “ka Human” value was 1.69e+06 M⁻¹ s⁻¹ and the “kd Human” value was 0.000126 s⁻¹. For B12, the Kd was 0.021 nM, the “ka Human” value was 3.49e+06 M⁻¹ s⁻¹ and the “kd Human” value was 7.37e-05 s⁻¹. With B13 the “ka Human” value was 5.11e+06 M⁻¹ s⁻¹ and the “kd Human” value was 0.00106 s⁻¹. B14 was tested, and the “ka Human” value was 3.03e+06 M⁻¹ s⁻¹ and the “kd Human” value was 0.000775 s⁻¹. In the case of B15, the “ka Human” value is reported as 5.5e+06 M⁻¹ s⁻¹ and the “kd Human” value is reported as 9.75e-05 s⁻¹.

These molecules were tested on Cyno BCMA (assay: Kinetics and affinity of cyno BCMA/human IgG interactions by SPR (Bio-Rad Proteon XPR36)). Details: 37° C.
Format: binding, cynomolgus
B10 was tested, and the “ka Cyno” value was 3.06e+06 M⁻¹ s⁻¹ and the “kd Cyno” value was 0.00101 s⁻¹. With B11 the “ka Cyno” value was 1.17e+06 M⁻¹ s⁻¹ and the “kd Cyno” value was 0.000185 s⁻¹. With B12 the Kd was 0.058 nM, the “ka Cyno” value was 1.81e+06 M⁻¹ s⁻¹ and the “kd Cyno” value was 0.000105 s⁻¹. B13 was tested, and the “ka Cyno” value was 2.2e+06 M⁻¹ s⁻¹ and the “kd Cyno” value was 0.00423 s⁻¹. In the case of B14, the “ka Cyno” value is reported as 1.7e+06 M⁻¹ s⁻¹ and the “kd Cyno” value is reported as 0.00165 s⁻¹. In the case of B15, the “ka Cyno” value is reported as 2.13e+06 M⁻¹ s⁻¹ and the “kd Cyno” value is reported as 0.000174 s⁻¹.
